We go through one protein from publication PMC7115839, “An ATP-responsive metabolic cassette comprised of inositol tris/tetrakisphosphate kinase 1 (ITPK1) and inositol pentakisphosphate 2-kinase (IPK1) buffers diphosphosphoinositol phosphate levels” (Biochemical Journal, 2020).

Substrate in the series: Nc1ncnc2c1ncn2[C@@H]1O[C@H](COP(=O)(O)OP(=O)(O)OP(=O)(O)O)[C@@H](O)[C@H]1O
Put plainly: HPLC of inositol phosphates, Michaelis-Menten fit. It counts as biochemical, Arabidopsis thaliana. The settings on record: co-substrate Ins(3,4,5,6)P4 (preferred), 0.08-10 mM ATP, 1 mM MgCl2, HEPES pH 7.5, 25 C.

B1: ITPK1 (AtITPK1) (Arabidopsis thaliana) (protein)
chain: MSDSIQERYLVGYALAAKKQHSFIQPSLIEHSRQRGIDLVKLDPTKSLLEQGKLDCIIHKLYDVYWKENLHEFREKCPGVPVIDLPEAIERLHNRVSMLEVITQLRFPVSDSERFGVPEQVVVMDSSVLSGGGALGELKFPVIAKPLDADGSAKSHKMFLIYDQEGMKILKAPIVLQEFVNHGGVIFKVYVVGDHVKCVKRRSLPDISEEKIGTSKGSLPFSQISNLTAQEDKNIEYGEDRSLEKVEMPPLSFLTDLAKAMRESMGLNLFNFDVIRDAKDANRYLIIDINYFPGYAKMPSYEPVLTEFFWDMVTKKNHV
notes: recombinant in E. coli Rosetta 2(DE3)pLysS, pOPINF, 3C-cleavable His tag (printed as C-terminal); Ni-NTA and Superdex 75
As usually defined, the Km is the substrate concentration at which the rate is half of its maximum. B1: the Km was found to be 770 ± 190 µM.
